Experimental data published in patent US20090004190A1, “Rage Fusion Proteins And Methods Of Use” (priority 2006, published 2009).

Target: Fc receptor on THP-1 cells
Assay: cell-based or functional assay

TNF secreted by THP-1 cells in wells coated with 10 µg/well heat aggregated protein (ELISA, 24 h): > 40 ng/well
Substance: human IgG1 (heat aggregated, coated on wells) (antibody)
